Source: article PMC7673117

Columns and labels:
[1] = molecular target: HLA-E loaded with Peptide 19 on 721.174 cells (human (endogenous in 721.174 cells) | Epstein-Barr virus (B95.8 laboratory strain)) (UniProt P13747)
[2] = molecular target: HLA-E loaded with Peptide 9 on 721.174 cells (human (endogenous in 721.174 cells) | Epstein-Barr virus (B95.8 laboratory strain)) (UniProt P13747)
[3] = molecular target: HLA-E loaded with Peptide 12 (…) on 721.174 cells (human (endogenous in 721.174 cells) | Epstein-Barr virus (B95.8 laboratory strain)) (UniProt P13747)

Measured: cytotoxicity of sorted NKG2A+NKG2C- NK cells against peptide-pulsed 721.174 cells, E:T 3:1, 5 h

NKG2A/CD94 receptor on primary human NK cells (from UniProt P26715;Q13241)
> 80%: [1] | [2] | [3]
